Source: publication PMC9839844, “PPDPF Promotes the Development of Mutant KRAS‐Driven Pancreatic Ductal Adenocarcinoma by Regulating the GEF Activity of SOS1” (Advanced Science, 2022)

Molecular target: T1, SOS1^Cat (catalytic module of SOS1: REM and CDC25 domains), recombinant (UniProt Q07889 566-1046)
T1 construct: SOS1, Cat domain (REM and CDC25 domains together); cloned into the ProEX HTb vector; also called SOS^Cat; Cat domain; source: E. coli BL21 (Rosta), purified (His beads)
T1 sequence: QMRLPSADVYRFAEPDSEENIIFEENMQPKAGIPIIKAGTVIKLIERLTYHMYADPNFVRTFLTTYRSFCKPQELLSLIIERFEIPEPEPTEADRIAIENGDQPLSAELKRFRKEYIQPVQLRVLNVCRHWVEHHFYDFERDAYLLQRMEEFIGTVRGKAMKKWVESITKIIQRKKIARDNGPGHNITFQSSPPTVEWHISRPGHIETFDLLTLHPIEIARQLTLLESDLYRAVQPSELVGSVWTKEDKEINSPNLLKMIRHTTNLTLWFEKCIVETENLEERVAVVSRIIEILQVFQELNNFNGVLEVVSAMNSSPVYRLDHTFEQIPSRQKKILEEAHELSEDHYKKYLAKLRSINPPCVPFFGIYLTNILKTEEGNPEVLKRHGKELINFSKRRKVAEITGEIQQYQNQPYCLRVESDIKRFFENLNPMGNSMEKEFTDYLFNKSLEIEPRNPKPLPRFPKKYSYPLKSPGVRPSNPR
Test: pull-down; GST pulldown in vitro with recombinant proteins
Conditions: both partners purified

B1: PPDPF, recombinant (natural protein, UniProt Q9H3Y8 1-114, looked up)
chain: MAAIPSSGSLVATHDYYRRRLGSTSSNSSCSSTECPGEAIPHPPGLPKADPGHWWASFFFGKSTLPFMATVLESAEHSEPPQASSSMTACGLARDAPRKQPGGQSSTASAGPPS
notes: Pancreatic progenitor cell differentiation and proliferation factor (PPDPF); subcloned into pGEX-4T-1; The methods say that the beads were incubated with thrombin; also called PPDPF recombinant protein; source: E. coli BL21, purified (GST beads)
Does B1 bind?
Result: binds
